The target in experiment [1] is T1, mouse R-cadherin fused to Red Fluorescent Protein, on stably transfected L-cells (mouse, UniProt P39038 167-913).
T1 sequence (looked up): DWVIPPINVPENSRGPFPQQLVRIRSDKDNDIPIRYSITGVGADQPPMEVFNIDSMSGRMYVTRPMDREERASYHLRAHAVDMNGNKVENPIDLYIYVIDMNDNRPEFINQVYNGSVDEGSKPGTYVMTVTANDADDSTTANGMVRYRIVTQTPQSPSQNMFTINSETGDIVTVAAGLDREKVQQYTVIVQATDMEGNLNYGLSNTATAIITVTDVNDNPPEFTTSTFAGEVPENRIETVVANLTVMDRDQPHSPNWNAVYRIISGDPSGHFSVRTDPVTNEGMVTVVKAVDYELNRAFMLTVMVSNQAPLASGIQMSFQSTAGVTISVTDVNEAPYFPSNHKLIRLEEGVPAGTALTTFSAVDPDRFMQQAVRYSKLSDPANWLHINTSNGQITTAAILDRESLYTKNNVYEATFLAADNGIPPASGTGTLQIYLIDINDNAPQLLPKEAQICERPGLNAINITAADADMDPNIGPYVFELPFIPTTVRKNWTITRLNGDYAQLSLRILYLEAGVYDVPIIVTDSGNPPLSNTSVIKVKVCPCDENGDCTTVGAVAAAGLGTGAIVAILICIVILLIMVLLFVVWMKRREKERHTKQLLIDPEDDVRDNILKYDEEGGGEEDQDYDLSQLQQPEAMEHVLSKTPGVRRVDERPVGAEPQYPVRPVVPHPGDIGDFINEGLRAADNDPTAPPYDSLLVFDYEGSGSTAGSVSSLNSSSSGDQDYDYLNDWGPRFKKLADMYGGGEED
The experiment is described as follows: cell-based or functional assay.

The target in experiment [2] is T2, mouse N-cadherin fused to Red Fluorescent Protein, on stably transfected L-cells (mouse, UniProt P15116 160-906).
T2 sequence (looked up): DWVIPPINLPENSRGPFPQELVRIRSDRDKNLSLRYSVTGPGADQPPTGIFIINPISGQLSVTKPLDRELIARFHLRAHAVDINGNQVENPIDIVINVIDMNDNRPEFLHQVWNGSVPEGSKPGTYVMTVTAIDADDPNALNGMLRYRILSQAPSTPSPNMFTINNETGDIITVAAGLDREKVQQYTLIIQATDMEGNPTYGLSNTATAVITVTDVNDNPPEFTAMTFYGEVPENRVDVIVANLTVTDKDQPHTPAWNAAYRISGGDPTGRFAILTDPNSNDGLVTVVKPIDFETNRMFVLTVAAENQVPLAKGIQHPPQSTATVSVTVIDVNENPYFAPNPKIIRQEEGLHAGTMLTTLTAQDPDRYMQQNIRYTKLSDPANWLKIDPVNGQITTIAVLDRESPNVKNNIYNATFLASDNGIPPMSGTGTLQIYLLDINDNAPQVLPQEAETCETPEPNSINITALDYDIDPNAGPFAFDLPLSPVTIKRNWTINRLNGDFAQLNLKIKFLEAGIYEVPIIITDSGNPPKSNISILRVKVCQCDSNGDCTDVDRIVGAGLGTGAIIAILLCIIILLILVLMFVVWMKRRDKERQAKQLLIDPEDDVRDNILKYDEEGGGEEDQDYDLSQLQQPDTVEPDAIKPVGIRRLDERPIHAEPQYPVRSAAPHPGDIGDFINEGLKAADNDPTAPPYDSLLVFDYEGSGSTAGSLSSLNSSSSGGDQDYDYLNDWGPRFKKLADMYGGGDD
The experiment is described as follows: cell-based or functional assay.

Bridges are numbered along the chain shown (N, C = ends). Where no end group is shown, it is not given here. Where only a bound is given, the exact number is not on record here.

B1: cyclic CIDSC (SEQ ID NO: 8) (peptide)
peptide: CIDSC
modifications: disulfide 1-5; not fully specified
In the case of B1, in experiment [1], the “IC50 of inhibition of R-cadherin mediated L-cell aggregation” value was around 300 µM.

B2: IDSMSGR (SEQ ID NO: 2) (peptide)
peptide: IDSMSGR
modifications: not fully specified
With B2, in experiment [1], the “IC50 of inhibition of R-cadherin mediated L-cell adhesion (aggregation)” value was around 900 µM and the “effectiveness relative to cyclic IDS in the aggregation assay” value is around 3 fold lower.

B3: cyclic HAV peptide (CHAVC, SEQ ID NO: 20) (peptide)
peptide: CHAVC
modifications: disulfide 1-5
Turning to B3, in experiment [1], the “IC50 of inhibition of R-cadherin mediated L-cell aggregation” value was 150 to 200 µM. The “IC50 of inhibition of N-cadherin mediated L-cell aggregation” value in experiment [2] lay within 150 to 200 µM.

B4: cyclic CINPC (SEQ ID NO: 9) (peptide)
peptide: CINPC
modifications: disulfide 1-5; not fully specified
Regarding B4, in experiment [2], the “IC50 of inhibition of N-cadherin mediated L-cell aggregation” value is below 300 µM.

These data come from patent publication US20050004013A1 (Scripps Research, published 2005).
